Assay results taken from article doi:10.1101/2020.08.06.225375 (bioRxiv, 2020).

B1: M. smegmatis ATP synthase subunit a (natural protein)
chain: MLAAEEGGAAIHVGHHTLVFELFGMTFNGDTILATAVTAVIVIALAFYLRAKVTSTGVPSGVQLFWEALTIQMRQQIEGSIGMKIAPFVLPLSVTIFVFILISNWLAVLPLQYGGADGAAAELYKAPASDINFVLALALFVFVCYHAAGIWRRGIVGHPIKVVKGHVAFLAPINIVEELAKPISLALRLFGNIFAGGILVALIAMFPWYIQWFPNAVWKTFDLFVGLIQAFIFSLLTILYFSQSMELDHEDH
B2: M. smegmatis ATP synthase subunit β with C-terminal 3×FLAG tag (natural protein)
chain: MTATAEKTAGRVVRITGPVVDVEFPRGSVPELFNALHAEITFGALAKTLTLEVAQHLGDSLVRCISMQPTDGLVRGVEVTDTGASISVPVGDGVKGHVFNALGDCLDDPGYGKDFEHWSIHRKPPAFSDLEPRTEMLETGLKVVDLLTPYVRGGKIALFGGAGVGKTVLIQEMINRIARNFGGTSVFAGVGERTREGNDLWVELADANVLKDTALVFGQMDEPPGTRMRVALSALTMAEFFRDEQGQDVLLFIDNIFRFTQAGSEVSTLLGRMPSAVGYQPTLADEMGELQERITSTRGRSITSMQAVYVPADDYTDPAPATTFAHLDATTELSRAVFSKGIFPAVDPLASSSTILDPAIVGDEHYRVAQEVIRILQRYKDLQDIIAILGIDELSEEDKQLVNRARRIERFLSQNMMAAEQFTGQPGSTVPLKETIEAFDKLTKGEFDHLPEQAFFLIGGLDDLAKKAESLGAKL
B3: M. smegmatis ATP synthase subunit b-δ (b-δ fusion protein) (natural protein)
chain: MSIFIGQLIGFAVIAFIIVKWVVPPVRTLMRNQQEAVRAALAESAEAAKKLADADAMHAKALADAKAESEKVTEEAKQDSERIAAQLSEQAGSEAERIKAQGAQQIQLMRQQLIRQLRTGLGAEAVNKAAEIVRAHVADPQAQSATVDRFLSELEQMAPSSVVIDTAATSRLRAASRQSLAALVEKFDSVAGGLDADGLTNLADELASVAKLLLSETALNKHLAEPTDDSAPKVRLLERLLSDKVSATTLDLLRTAVSNRWSTESNLIDAVEHTARLALLKRAEIAGEVDEVEEQLFRFGRVLDAEPRLSALLSDYTTPAEGRVALLDKALTGRPGVNQTAAALLSQTVGLLRGERADEAVIDLAELAVSRRGEVVAHVSAAAELSDAQRTRLTEVLSRIYGRPVSVQLHVDPELLGGLSITVGDEVIDGSIASRLAAAQTGLPD

How the values were obtained:
Assay in all cases: cryo-EM structure
[1] = target: B2
[2] = target: B3
cryo-EM structure = target: the molecule itself
[3] = target: B1
[4] = target: M. smegmatis ATP synthase subunit α (M. smegmatis, UniProt A0R202 1-548)
M. smegmatis ATP synthase subunit α, sequence (A0R202 whole entry): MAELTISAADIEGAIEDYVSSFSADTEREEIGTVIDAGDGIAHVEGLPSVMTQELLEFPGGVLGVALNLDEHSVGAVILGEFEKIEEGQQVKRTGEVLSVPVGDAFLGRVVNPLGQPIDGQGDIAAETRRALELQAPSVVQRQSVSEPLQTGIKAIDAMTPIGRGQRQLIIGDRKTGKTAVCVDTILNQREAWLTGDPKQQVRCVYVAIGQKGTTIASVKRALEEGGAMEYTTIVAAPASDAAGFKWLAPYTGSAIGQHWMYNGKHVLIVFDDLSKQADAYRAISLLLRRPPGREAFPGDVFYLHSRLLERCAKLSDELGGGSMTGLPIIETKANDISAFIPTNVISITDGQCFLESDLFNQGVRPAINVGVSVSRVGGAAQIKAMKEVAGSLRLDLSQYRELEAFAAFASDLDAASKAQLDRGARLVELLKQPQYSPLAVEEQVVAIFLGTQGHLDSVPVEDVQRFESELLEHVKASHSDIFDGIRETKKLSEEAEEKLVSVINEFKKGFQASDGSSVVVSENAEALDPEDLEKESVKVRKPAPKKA

| Binder | binding result [1] | binding result [2] | stoichiometry N (cryo-EM structure) | binding result [3] | binding result [4] |
| --- | --- | --- | --- | --- | --- |
| M. smegmatis ATP synthase subunit ε (natural protein) MADLNVEIVAVERELWSGPATFVFTRTTAGEIGILPRHIPLVAQLVDDAMVRVEREGEDDLRIAVDGGFLSVTEETVRILVENAQFESEIDADAAKEDAASDDERTAAWGRARLRALGQID | binds |  |  |  |  |
| B1 | binds | binds |  |  |  |
| M. smegmatis ATP synthase subunit c (natural protein) MDLDPNAIITAGALIGGGLIMGGGAIGAGIGDGIAGNALISGIARQPEAQGRLFTPFFITVGLVEAAYFINLAFMALFVFATPGLQ | binds |  | 9 | binds |  |
| B2 |  |  |  |  | binds |
| M. smegmatis ATP synthase subunit b′ (natural protein) MGEFSATILAASQAAEEGGGGSNFLIPNGTFFAVLIIFLIVLGVISKWVVPPISKVLAEREAMLAKTAADNRKSAEQVAAAQADYEKEMAEARAQASALRDEARAAGRSVVDEKRAQASGEVAQTLTQADQQLSAQGDQVRSGLESSVDGLSAKLASRILGVDVNSGGTQ | binds |  |  | binds |  |
| B3 | binds |  |  |  | binds |
| M. smegmatis ATP synthase subunit γ (natural protein) MAATLRELRGRIRSAGSIKKITKAQELIATSRIAKAQARVEAARPYAAEITNMLTELAGASALDHPLLVERKQPKRAGVLVVSSDRGLCGAYNANVLRRAEELFSLLRDEGKDPVLYVVGRKALGYFSFRQRTVVESWTGFSERPTYENAREIADTLVNAFMAGADDEGDDAGADGILGVDELHIVFTEFRSMLSQTAVARRAAPMEVEYVGEVETGPRTLYSFEPDPETLFDALLPRYIATRVYAALLEAAASESASRRRAMKSATDNADDLIKALTLAANRERQAQITQEISEIVGGANALAGSK | binds |  |  |  | binds |
